In the supplement of paper PMC11246515:
± gives the standard deviation of the averaged measurements.

Assay: total protein half-life in vivo (active degradation + dilution); higher = more stable protein
[1] = E. coli NCM3722 delta-clpP delta-lon delta-hslV, growth: N-lim chemostat, doubling time 6 h
[2] = E. coli NCM3722 delta-clpP, growth: N-lim chemostat, doubling time 6 h
[3] = E. coli NCM3722 delta-hslV, growth: N-lim chemostat, doubling time 6 h
[4] = E. coli NCM3722 delta-smpB, growth: N-lim chemostat, doubling time 6 h
[5] = wild type E. coli NCM3722, growth: C-lim chemostat, doubling time 3 h
[6] = wild type E. coli NCM3722, growth: C-lim chemostat, doubling time 6 h
[7] = wild type E. coli NCM3722, growth: C-lim chemostat, doubling time 12 h
[8] = wild type E. coli NCM3722, growth: N-lim chemostat, doubling time 6 h
[9] = wild type E. coli NCM3722, growth: P-lim chemostat, doubling time 6 h
[10] = wild type E. coli NCM3722, growth: P-lim chemostat, doubling time 12 h
[11] = E. coli NCM3722 delta-lon, growth: N-lim chemostat, doubling time 6 h
[12] = wild type E. coli NCM3722, growth: N-lim chemostat, doubling time 12 h

Sequence	total protein half-life in vivo [1] [h]	total protein half-life in vivo [2] [h]	total protein half-life in vivo [3] [h]	total protein half-life in vivo [4] [h]	total protein half-life in vivo [5] [h]	total protein half-life in vivo [6] [h]	total protein half-life in vivo [7] [h]	total protein half-life in vivo [8] [h]	total protein half-life in vivo [9] [h]	total protein half-life in vivo [10] [h]	total protein half-life in vivo [11] [h]	total protein half-life in vivo [12] [h]
MAFRMSEQPRTIKIYNLLAGTNEFIGEGDAYIPPHTGLPANSTDIAPPDIPAGFVAVFNSDESSWHLVEDHRGKTVYDVASGNALFISELGPLPENVTWLSPEGEFQKWNGTAWVKDTEAEKLFRIREAEETKNNLMQVASEHIAPLQDAADLEIATEEEISLLEAWKKYRVLLNRVDTSTAQDIEWPALP	3.03	2.56	1.99	1.99	1.9	2.42 ± 0.94	5.44	3.48	3.08	7.47 ± 0.83		
MQDAAPRLTFTLRDEERLMMKIGVFVPIGNNGWLISTHAPQYMPTFELNKAIVQKAEHYHFDFALSMIKLRGFGGKTEFWDHNLESFTLMAGLAAVTSRIQIYATAATLTLPPAIVARMAATIDSISGGRFGVNLVTGWQKPEYEQMGIWPGDDYFSRRYDYLTEYVQVLRDLWGTGKSDFKGDFFTMNDCRVSPQPSVPMKVICAGQSDAGMAFSARYADFNFCFGKGVNTPTAFAPTAARMKQAAEQTGRDVGSYVLFMVIADETDDAARAKWEHYKAGADEEALSWLTEQSQKDTRSGTDTNVRQMADPTSAVNINMGTLVGSYASVARMLDEVASVPGAEGVLLTFDDFLSGIETFGERIQPLMQCRAHLPALTQEVA	5.26 ± 0.37	3.06 ± 0.12	0.715 ± 0.26	0.481 ± 0.11				0.658 ± 0.16			0.661 ± 0.0067	0.664 ± 0.16
MTEQATTTDELAFTRPYGEQEKQILTAEAVEFLTELVTHFTPQRNKLLAARIQQQQDIDNGTLPDFISETASIRDADWKIRGIPADLEDRRVEITGPVERKMVINALNANVKVFMADFEDSLAPDWNKVIDGQINLRDAVNGTISYTNEAGKIYQLKPNPAVLICRVRGLHLPEKHVTWRGEAIPGSLFDFALYFFHNYQALLAKGSGPYFYLPKTQSWQEAAWWSEVFSYAEDRFNLPRGTIKATLLIETLPAVFQMDEILHALRDHIVGLNCGRWDYIFSYIKTLKNYPDRVLPDRQAVTMDKPFLNAYSRLLIKTCHKRGAFAMGGMAAFIPSKDEEHNNQVLNKVKADKSLEANNGHDGTWIAHPGLADTAMAVFNDILGSRKNQLEVMREQDAPITADQLLAPCDGERTEEGMRANIRVAVQYIEAWISGNGCVPIYGLMEDAATAEISRTSIWQWIHHQKTLSNGKPVTKALFRQMLGEEMKVIASELGEERFSQGRFDDAARLMEQITTSDELIDFLTLPGYRLLA	5.7 ± 1.2	4.82 ± 0.056	1.75 ± 0.022	1.76 ± 0.22	2.25 ± 0.18	3.17 ± 0.25	4.18 ± 0.32	2.5 ± 1	2.73 ± 0.2	5.08 ± 0.14	2.2 ± 0.35	2.59 ± 0.19
MTIVRIDAEARWSDVVIHNNTLYYTGVPENLDADAFEQTANTLAQIDAVLEKQGSNKSSILDATIFLADKNDFAAMNKAWDAWVVAGHAPVRCTVQAGLMNPKYKVEIKIVAAV [P0AEB7]	5.7 ± 0.14	5.4 ± 0.17	4.95 ± 0.36	5.45 ± 0.95	3.02 ± 0.18	7.21 ± 0.84	13.5 ± 0.29	6.27 ± 1.3	6.16 ± 0.16	12 ± 2.1	5.51 ± 0.45	11.2 ± 0.66
MTQLAIGKPAPLGAHYDGQGVNFTLFSAHAERVELCVFDANGQEHRYDLPGHSGDIWHGYLPDARPGLRYGYRVHGPWQPAEGHRFNPAKLLIDPCARQIDGEFKDNPLLHAGHNEPDYRDNAAIAPKCVVVVDHYDWEDDAPPRTPWGSTIIYEAHVKGLTYLHPEIPVEIRGTYKALGHPVMINYLKQLGITALELLPVAQFASEPRLQRMGLSNYWGYNPVAMFALHPAYACSPETALDEFRDAIKALHKAGIEVILDIVLNHSAELDLDGPLFSLRGIDNRSYYWIREDGDYHNWTGCGNTLNLSHPAVVDYASACLRYWVETCHVDGFRFDLAAVMGRTPEFRQDAPLFTAIQNCPVLSQVKLIAEPWDIAPGGYQVGNFPPLFAEWNDHFRDAARRFWLHYDLPLGAFAGRFAASSDVFKRNGRLPSAAINLVTAHDGFTLRDCVCFNHKHNEANGEENRDGTNNNYSNNHGKEGLGGSLDLVERRRDSIHALLTTLLLSQGTPMLLAGDEHGHSQHGNNNAYCQDNQLTWLDWSQASSGLTAFTAALIHLRKRIPALVENRWWEEGDGNVRWLNRYAQPLSTDEWQNGPKQLQILLSDRFLIAINATLEVTEIVLPAGEWHAIPPFAGEDNPVITAVWQGPAHGLCVFQR	5.66 ± 0.38	5.35 ± 0.093	5.23 ± 0.074	5.62 ± 0.72	3.31 ± 0.7	5.47 ± 0.28	10.5 ± 0.48	5.46 ± 0.36	6.42 ± 0.68	11.6 ± 1.6	6.01 ± 0.45	10.2 ± 0.7
MHELSLCQSAVEIIQRQAEQHDVKRVTAVWLEIGALSCVEESAVRFSFEIVCHGTVAQGCDLHIVYKPAQAWCWDCSQVVEIHQHDAQCPLCHGERLRVDTGDSLIVKSIEVE [P0A703]	4.94 ± 1.4	3.51		3.57			9.8	3.97 ± 0.6	3.77	8.0989 ± 0.006	3.49 ± 0.32	5.27 ± 1.4
MTKKLHIKTWGCQMNEYDSSKMADLLDATHGYQLTDVAEEADVLLLNTCSIREKAQEKVFHQLGRWKLLKEKNPDLIIGVGGCVASQEGEHIRQRAHYVDIIFGPQTLHRLPEMINSVRGDRSPVVDISFPEIEKFDRLPEPRAEGPTAFVSIMEGCNKYCTYCVVPYTRGEEVSRPSDDILFEIAQLAAQGVREVNLLGQNVNAWRGENYDGTTGSFADLLRLVAAIDGIDRIRFTTSHPIEFTDDIIEVYRDTPELVSFLHLPVQSGSDRILNLMGRTHTALEYKAIIRKLRAARPDIQISSDFIVGFPGETTEDFEKTMKLIADVNFDMSYSFIFSARPGTPAADMVDDVPEEEKKQRLYILQERINQQAMAWSRRMLGTTQRILVEGTSRKSIMELSGRTENNRVVNFEGTPDMIGKFVDVEITDVYPNSLRGKVVRTEDEMGLRVAETPESVIARTRKENDLGVGYYQP [P0AEI1]	4.82 ± 0.13	2.04 ± 0.24	1.57 ± 0.14	1.54 ± 0.098	1.5 ± 0.018	2.18 ± 0.19	2.62 ± 0.22	1.632 ± 0.015	1.97 ± 0.35	3.75 ± 0.39	2.12 ± 0.29	2.12 ± 0.027
MNLMTTITGVVLAGGKARRMGGVDKGLLELNGKPLWQHVADALMTQLSHVVVNANRHQEIYQASGLKVIEDSLADYPGPLAGMLSVMQQEAGEWFLFCPCDTPYIPPDLAARLNHQRKDAPVVWVHDGERDHPTIALVNRAIEPLLLEYLQAGERRVMVFMRLAGGHAVDFSDHKDAFVNVNTPEELARWQEKR	4.29 ± 0.5	3.95 ± 0.19	3.728 ± 0.033	3.59 ± 0.12	2.95 ± 0.26	5.9 ± 0.46	9.71 ± 3.2	4.46	5.046 ± 0.009	10.9 ± 0.43	4.1 ± 0.19	6.67 ± 1.5
MKNVGFIGWRGMVGSVLMQRMVEERDFDAIRPVFFSTSQLGQAAPSFGGTTGTLQDAFDLEALKALDIIVTCQGGDYTNEIYPKLRESGWQGYWIDAASSLRMKDDAIIILDPVNQDVITDGLNNGIRTFVGGNCTVSLMLMSLGGLFANDLVDWVSVATYQAASGGGARHMRELLTQMGHLYGHVADELATPSSAILDIERKVTTLTRSGELPVDNFGVPLAGSLIPWIDKQLDNGQSREEWKGQAETNKILNTSSVIPVDGLCVRVGALRCHSQAFTIKLKKDVSIPTVEELLAAHNPWAKVVPNDREITMRELTPAAVTGTLTTPVGRLRKLNMGPEFLSAFTVGDQLLWGAAEPLRRMLRQLA [P0A9Q9]	4.6 ± 1.1	3.96 ± 0.59	3.75 ± 0.11	3.49 ± 0.27	2.97 ± 0.19	5.55 ± 0.092	9.4 ± 0.89	3.76 ± 0.22	5.76 ± 0.3	11 ± 1.3	4.54 ± 0.57	5.831 ± 0.054
MAEKQTAKRNRREEILQSLALMLESSDGSQRITTAKLAASVGVSEAALYRHFPSKTRMFDSLIEFIEDSLITRINLILKDEKDTTARLRLIVLLLLGFGERNPGLTRILTGHALMFEQDRLQGRINQLFERIEAQLRQVLREKRMREGEGYTTDETLLASQILAFCEGMLSRFVRSEFKYRPTDDFDARWPLIAAQLQ [P0C093]	6.82 ± 0.62		5.04 ± 0.42	4.65 ± 0.39	2.5806 ± 0.0014	5.49 ± 0.15	9.76 ± 1.4	4.89 ± 0.97	4.14 ± 0.13	7.01 ± 0.77	5.5 ± 0.72	9.106 ± 0.086
MDEFKPEDELKPDPSDRRTGRSRQSSERSERTERGEPQINFDDIELDDTDDRRPTRAQKERNEEPEIEEEIDESEDETVDEERVERRPRKRKKAASKPASRQYMMMGVGILVLLLLIIGIGSALKAPSTTSSDQTASGEKSIDLAGNATDQANGVQPAPGTTSAENTQQDVSLPPISSTPTQGQTPVATDGQQRVEVQGDLNNALTQPQNQQQLNNVAVNSTLPTEPATVAPVRNGNASRDTAKTQTAERPSTTRPARQQAVIEPKKPQATVKTEPKPVAQTPKRTEPAAPVASTKAPAATSTPAPKETATTAPVQTASPAQTTATPAAGAKTAGNVGSLKSAPSSHYTLQLSSSSNYDNLNGWAKKENLKNYVVYETTRNGQPWYVLVSGVYASKEEAKKAVSTLPADVQAKNPWAKPLRQVQADLK	5.8 ± 0.35	6.01 ± 0.27	5.595 ± 0.021	5.54 ± 0.12	2.84 ± 0.091	5.51 ± 0.26	9.07 ± 0.37	5.58 ± 0.49	5.099 ± 0.038	10.285 ± 0.01	5.74 ± 0.32	11.9 ± 2
